The source of these data is US20020155114A1 (published 2002).

Test [1] addresses T1, BoNT/A Hc (C-terminal domain of botulinum neurotoxin type A heavy chain, binding domain) (Clostridium botulinum (type A serotype), UniProt P0DPI0 860-1296).
In test [2] the target is T1, BoNT/A Hc (C-terminal domain of …). The test can be described thus: SPR (BIAcore), BoNT/A Hc coupled to CM5 chip, purified scFv in flow. On the technique in general: Surface plasmon resonance follows binding to a sensor surface in real time, without labels.
Test [3] addresses botulinum neurotoxin type A (BoNT/A), pure holotoxin (Clostridium botulinum (type A serotype), UniProt P0DPI0 2-1296). The test can be described thus: cell-based or functional assay.

T1 sequence (P0DPI0 860-1296): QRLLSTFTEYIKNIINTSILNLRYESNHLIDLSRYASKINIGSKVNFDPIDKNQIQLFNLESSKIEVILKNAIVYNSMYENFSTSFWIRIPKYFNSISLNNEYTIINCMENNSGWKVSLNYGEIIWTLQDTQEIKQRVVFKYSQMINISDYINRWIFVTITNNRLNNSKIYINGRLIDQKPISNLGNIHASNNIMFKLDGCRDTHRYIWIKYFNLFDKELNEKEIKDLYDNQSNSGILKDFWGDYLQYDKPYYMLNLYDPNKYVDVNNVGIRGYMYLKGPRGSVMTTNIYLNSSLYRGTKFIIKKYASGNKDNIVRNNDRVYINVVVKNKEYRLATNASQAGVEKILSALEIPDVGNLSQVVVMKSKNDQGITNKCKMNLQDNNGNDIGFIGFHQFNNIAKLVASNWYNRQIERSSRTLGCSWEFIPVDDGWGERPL
Sequence of botulinum neurotoxin type A (BoNT/A), pure holotoxin (P0DPI0 2-1296 limits assumed): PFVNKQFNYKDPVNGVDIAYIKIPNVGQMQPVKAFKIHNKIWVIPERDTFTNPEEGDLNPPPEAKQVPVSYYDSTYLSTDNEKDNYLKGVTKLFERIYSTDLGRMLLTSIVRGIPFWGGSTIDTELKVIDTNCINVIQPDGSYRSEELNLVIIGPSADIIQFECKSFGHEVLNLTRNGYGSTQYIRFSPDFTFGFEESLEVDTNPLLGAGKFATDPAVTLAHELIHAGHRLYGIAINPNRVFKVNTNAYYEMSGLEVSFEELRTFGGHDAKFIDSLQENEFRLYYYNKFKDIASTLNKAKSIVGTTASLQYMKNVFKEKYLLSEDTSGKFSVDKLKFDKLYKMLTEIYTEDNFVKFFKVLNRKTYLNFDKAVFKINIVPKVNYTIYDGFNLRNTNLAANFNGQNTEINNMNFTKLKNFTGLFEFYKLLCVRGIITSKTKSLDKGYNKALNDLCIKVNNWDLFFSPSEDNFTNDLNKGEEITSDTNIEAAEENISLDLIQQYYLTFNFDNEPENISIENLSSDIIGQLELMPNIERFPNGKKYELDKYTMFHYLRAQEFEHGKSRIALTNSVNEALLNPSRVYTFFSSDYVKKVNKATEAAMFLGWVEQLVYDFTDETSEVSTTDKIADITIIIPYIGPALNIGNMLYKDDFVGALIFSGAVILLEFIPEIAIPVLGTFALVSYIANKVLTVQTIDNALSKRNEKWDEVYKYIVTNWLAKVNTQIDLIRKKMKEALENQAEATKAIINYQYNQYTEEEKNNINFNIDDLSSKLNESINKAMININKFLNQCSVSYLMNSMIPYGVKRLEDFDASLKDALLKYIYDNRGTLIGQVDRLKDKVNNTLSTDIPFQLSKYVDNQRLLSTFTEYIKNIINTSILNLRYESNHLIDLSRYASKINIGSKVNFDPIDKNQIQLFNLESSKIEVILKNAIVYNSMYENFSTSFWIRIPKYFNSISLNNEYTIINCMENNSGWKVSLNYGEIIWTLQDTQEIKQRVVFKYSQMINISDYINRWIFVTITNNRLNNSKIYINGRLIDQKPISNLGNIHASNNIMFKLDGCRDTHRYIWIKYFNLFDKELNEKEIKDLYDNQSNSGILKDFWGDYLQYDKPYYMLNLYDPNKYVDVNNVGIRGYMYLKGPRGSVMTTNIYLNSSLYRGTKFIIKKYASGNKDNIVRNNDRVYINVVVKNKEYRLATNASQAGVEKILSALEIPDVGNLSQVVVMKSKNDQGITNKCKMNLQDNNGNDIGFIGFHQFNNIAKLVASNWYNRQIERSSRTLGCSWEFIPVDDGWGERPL

B1: scFv 1F3 (scFv)
scFv: EVQLQQSGAELVKPGASVKLSCKASGYTFTSFWMHWVKQAPGRGLEWIGRLDPNSGETKYNEKFKSKATLTVDKPSSTAYMELSSLTSEDSAVYYCAREAYGYWNFDVWGTGTTVTVSSGGGGSGGGGSGGGGSDIELTQSPASMSASPGEKVTMTCRATSSVSSSYLHWYQQKSGASPKLWIYSASNLASGVPSRFSGSGSGTSYSLTISSVEAEDAATYYCQQYIGYPYTFGGGTKLEIKR
With B1, in test [1], binding was characterised by a dissociation constant (Kd) of 12 nM. Besides, in test [2], the koff (commonly the rate constant with which the complex falls apart) worked out at 0.011 s⁻¹ and the kon (as a rule, a measure of how fast the partners come together) stood at 920000 M⁻¹ s⁻¹.

B2: scFv S25 (scFv)
scFv: QVKLQQSGAELVRPGASVKLSCKASGYSLTSYWMNWVKQRPGQGLEWIGMIHPSDSDTRFNQKFEDKATLTVDTSSSTAYMQLSSPTSEDSAVYYCARGLYNGFWYFDVWGQGTTVTVSSGGGGSGGGGSGGGGSDIELTQSPALMAASPGEKVIITCSVSSSISSSNLHWYQQKSGTSPKPWIYGTSNLASGVPVRFSGSGSGTSYSLTISSMEAEDAATYYCQQWSSYPLTFGAGTKLEIKR
As for B2, in test [1], the affinity, expressed as Kd, was 73 nM. For the same molecule, in test [3], the “prolongation of the time to neuroparalysis (against BoNT/A alone)” value came out at 1.5 fold. In test [2], this molecule returned a koff of 0.00082 s⁻¹ and a kon of 11000 M⁻¹ s⁻¹.

B3: scFv C25 (scFv)
scFv: QVQLQESGGGLVKPGGSLKLSCAASGFTFSDYYMYWVRQTPEKRLEWVATISDGGSYTYYPDSVKGRFTISRDNAKNNLYLQMSSLKSEDTAMYYCSRYRYDDAMDYWGQGTTVTVSSGGGGSGGGGSGGGGSDIELTQSPASLAVSLGQRATISCRASESVDSYGHSFMQWYQQKPGQPPKLLIYRASNLEPGIPARFSGSGSGTDFTLTINPVEADDVATYYCQQSNEDPFTFGSGTKLEIKR
For the molecule B3, the “prolongation of the time to neuroparalysis (against BoNT/A alone)” value in test [3] turned out to be 2.7 fold.

B4: scFv 1C6 (scFv)
scFv: QIQLLQSGGGVVQPGRSLRLSCAASGFTFSSYAMHWVRQAPGKGLEWVAVISYDGSNKYYADSVKGRFTISRDNSKNTLYLQMNSLRAEDTAVYYCARDWSEGYYYYGMDVWGQGTTVIVSSGGGGSGGGGSGGGGSDIELTQSPASLAVSLGRRATTSCRASESVEYYGTSLMQWYQQKPGQPPKLLIYAASNVESGVPARFSGSGSGTDFSLNIHPVEEEDIAMYFCQQSRKVPWTFGGGTKLEIKR
For B4, the Kd – broadly, a measure of binding affinity in units of concentration – in test [1] was determined as 20 nM. Besides, in test [2], the dissociation rate constant (koff) was 0.0025 s⁻¹ and the on-rate (kon) is 130000 M⁻¹ s⁻¹.
